Test results published in publication PMC5633906, “Introducing site-specific cysteines into nanobodies for mercury labelling allows de novo phasing of their crystal structures” (Acta Crystallographica. Section D, Structural Biology, 2017).

Target: T1, human complement component C5 (Homo sapiens, UniProt P01031)
T1 construct: complement C5 beta chain, human, cut product of the C5 precursor; complement C5 alpha chain, human, cut product of the C5 precursor; also called Human C5; C5 antigen; source: purified as described previously (Laursen et al., 2010; Schatz-Jakobsen et al., 2016)
Assay: BLI; Octet RED; histidine-tagged Nbs immobilised on Anti-Penta-HIS biosensors at 2.5 µg/ml; C5 62.5 to 2000 nM in PBS; association 700 s, dissociation 1800 s; global fit
Conditions: both partners purified

B1: native Nb36 nanobody (VHH)
VHH: QVQLVESGGGLVQAGGSLRLSCVVSGSAVSDYAMGWYRQAPGKQRELVAAIYNSGRTNYVDSVKGRFTISKDNAKKTVYLQMNSLKPEDTADYFCNLLGATTMSNAVWGQGTQVTVSS
notes: Selected by phage display from a llama immunised with human C5; construct in pET-22b(+) with an N-terminal PelB signal for secretion into the periplasm; also called nonmodified Nb36; Nb36-Nat1; source: E. coli LOBSTR, purified (Ni Sepharose, Superdex 75); not shown: 6xHis, C-terminal, kept
Kd: ~86 nM

B2: PCMB-labelled Nb36-C85 (VHH)
VHH: QVQLVESGGGLVQAGGSLRLSCVVSGSAVSDYAMGWYRQAPGKQRELVAAIYNSGRTNYVDSVKGRFTISKDNAKKTVYLQMNCLKPEDTADYFCNLLGATTMSNAVWGQGTQVTVSS
notes: as the VHH of m1 with Ser85Cys (position 82b in the Kabat nomenclature); Construct in pET-22b(+) with an N-terminal PelB signal for secretion into the periplasm; In the crystals the benzoate moiety of PCMB was not seen; also called Nb36 Ser85Cys labelled with PCMB; Hg-labelled Nb36-C85; source: E. coli LOBSTR, purified (Ni Sepharose, Superdex 75), labelled with PCMB; not shown: 6xHis, C-terminal, …
Kd: ~37 nM
